# Data reported in paper PMC5264503, “Structural and biophysical analysis of nuclease protein antibiotics” (Biochemical Journal, 2016).
# B1: ImS2 (pyocin S2 immunity protein) (natural protein)
# chain: MKSKISEYTEKEFLEFVKDIYTNNKKKFPTEESHIQAVLEFKKLTEHPSGSDLLYYPNENREDSPAGVVKEVKEWRASKGLPGFKAG
# notes: not shown: His6, C-terminal, kept
# Experiments:
# [1] = biological target: wild-type ColE9 (colicin E9) (E. coli) (UniProt P09883); test: stopped-flow fluorescence; wild-type ColE9 under the same conditions (PBS pH 7.4, 25 °C); data not shown
# [2] = biological target: pyocin S2 (P. aeruginosa, UniProt Q06584 1-689); test: SAXS; conditions: both partners purified
# pyocin S2, sequence (Q06584 whole entry): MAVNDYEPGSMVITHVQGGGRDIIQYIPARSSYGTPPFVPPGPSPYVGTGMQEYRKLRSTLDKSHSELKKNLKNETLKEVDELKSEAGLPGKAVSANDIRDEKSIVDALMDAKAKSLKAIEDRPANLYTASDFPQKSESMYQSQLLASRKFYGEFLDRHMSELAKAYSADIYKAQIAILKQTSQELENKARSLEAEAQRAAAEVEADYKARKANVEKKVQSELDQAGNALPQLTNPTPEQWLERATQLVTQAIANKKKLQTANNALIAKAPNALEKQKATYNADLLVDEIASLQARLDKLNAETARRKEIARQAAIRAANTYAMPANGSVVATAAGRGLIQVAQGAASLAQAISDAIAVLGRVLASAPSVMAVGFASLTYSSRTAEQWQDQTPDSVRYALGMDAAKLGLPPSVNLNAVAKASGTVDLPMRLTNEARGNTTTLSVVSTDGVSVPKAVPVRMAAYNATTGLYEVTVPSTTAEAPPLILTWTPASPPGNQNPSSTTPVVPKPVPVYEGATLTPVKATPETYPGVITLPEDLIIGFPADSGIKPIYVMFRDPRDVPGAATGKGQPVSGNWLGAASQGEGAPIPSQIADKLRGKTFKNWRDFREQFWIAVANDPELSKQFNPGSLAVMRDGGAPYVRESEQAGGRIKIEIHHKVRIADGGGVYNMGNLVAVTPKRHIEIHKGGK
# wild-type ColE9 (colicin E9) (E. coli), sequence (P09883 whole entry): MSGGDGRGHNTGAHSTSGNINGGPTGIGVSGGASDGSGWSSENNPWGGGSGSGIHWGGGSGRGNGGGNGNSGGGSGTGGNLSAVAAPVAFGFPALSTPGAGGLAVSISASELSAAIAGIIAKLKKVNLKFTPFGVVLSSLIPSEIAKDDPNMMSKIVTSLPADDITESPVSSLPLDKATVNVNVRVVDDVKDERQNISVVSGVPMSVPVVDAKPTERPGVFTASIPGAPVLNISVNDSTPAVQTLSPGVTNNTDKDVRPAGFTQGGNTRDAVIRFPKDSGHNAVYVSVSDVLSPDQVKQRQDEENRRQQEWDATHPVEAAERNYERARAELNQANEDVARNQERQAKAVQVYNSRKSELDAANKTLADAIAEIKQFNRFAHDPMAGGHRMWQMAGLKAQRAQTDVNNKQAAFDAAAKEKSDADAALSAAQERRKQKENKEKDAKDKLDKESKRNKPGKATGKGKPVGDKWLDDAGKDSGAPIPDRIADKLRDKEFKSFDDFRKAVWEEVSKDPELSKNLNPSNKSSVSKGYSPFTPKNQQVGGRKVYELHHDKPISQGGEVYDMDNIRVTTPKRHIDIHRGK
Molecule,k1 (bimolecular collision) [1] [M⁻¹ s⁻¹],k2 app (conformational change) [1] [s⁻¹],binding result [2]
Im9 (immunity protein 9) (from UniProt P13479 1-86) (natural protein),1.28e+08,2.76,
B1,,,binds
